Results as given in US20130253037.

Assays:
[1] = target: 6-His-Aurora-A (recombinant, wild type, from Sf9 insect cells)

B1: 6-His-LIMK2 (recombinant, E. coli) (protein)
chain: MSALAGEDVWRCPGCGDHIAPSQIWYRTVNETWHGSCFRCSECQDSLTNWYYEKDGKLYCPKDYWGKFGEFCHGCSLLMTGPFMVAGEFKYHPECFACMSCKVIIEDGDAYALVQHATLYCGKCHNEVVLAPMFERLSTESVQEQLPYSVTLISMPATTEGRRGFSVSVESACSNYATTVQVKEVNRMHISPNNRNAIHPGDRILEINGTPVRTLRVEEVEDAISQTSQTLQLLIEHDPVSQRLDQLRLEARLAPHMQNAGHPHALSTLDTKENLEGTLRRRSLRRSNSISKSPGPSSPKEPLLFSRDISRSESLRCSSSYSQQIFRPCDLIHGEVLGKGFFGQAIKVTHKATGKVMVMKELIRCDEETQKTFLTEVKVMRSLDHPNVLKFIGVLYKDKKLNLLTEYIEGGTLKDFLRSMDPFPWQQKVRFAKGIASGMAYLHSMCIIHRDLNSHNCLIKLDKTVVVADFGLSRLIVEERKRAPMEKATTKKRTLRKNDRKKRYTVVGNPYWMAPEMLNGKSYDETVDIFSFGIVLCEIIGQVYADPDCLPRTLDFGLNVKLFWEKFVPTDCPPAFFPLAAICCRLEPESRPAFSKLEDSFEALSLYLGELGIPLPAELEELDHTVSMQYGLTRDSPP
- in vitro kinase assay, Aurora A (without TPX2) as putative LIMK2 substrate [1]: when LIMK2 was incubated with Aurora A (without TPX2), Aurora A did not get phosphorylated
- in vitro kinase assay, cofilin phosphorylation with [32P] ATP (6-His-cofilin): LIMK2 efficiently phosphorylated cofilin as expected (lane 3)
